± gives the standard error. For part of these data: This sample holds only a part of the variants without activity.
B1: glmS ribozyme (parent)
chain: AUAAAAGCGCCAGAACUACAGAAAUGUAGUUGACGAGGAGGAGGUUUAUCGAAUUUUCGGCGGAUGCCUCCAAA

What was measured:
Conditions in all cases: with glucosamine-6-phosphate
glucosamine-6-phosphate [1] = variants of: B1; assay: kcat; higher = faster cleavage; RNA array
Summary of the method: (§1)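 Tiles of sequenced MiSeq chips were imaged over ~14 h at 37 °C. On them, barcoded ribozyme variants had been transcribed in situ by E. coli RNA polymerase and were tracked via a hybridised Cy3 probe while glucosamine-6-phosphate (40 μM to 10 mM) in HEPES/KCl/Mg(OAc)2 buffer flowed in. Per-tile medians, normalised to baseline and to non-cleaving reference variants, were fit to one- or two-exponential decays for kobs, and weighted Michaelis–Menten fits gave kcat and KM.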

glucosamine-6-phosphate [2] = variants of: B1; assay: self-cleavage kobs at 40 uM GlcN6P; higher = faster cleavage; RNA array
Summary of the method: as §1

glucosamine-6-phosphate [3] = variants of: B1; assay: self-cleavage kobs at 2500 uM GlcN6P; higher = faster cleavage; RNA array
Summary of the method: as §1

glucosamine-6-phosphate [4] = variants of: B1; assay: self-cleavage kobs at 10000 uM GlcN6P; higher = faster cleavage; RNA array
Summary of the method: as §1

glucosamine-6-phosphate [5] = variants of: B1; assay: KM; higher = weaker cofactor use; RNA array
Summary of the method: as §1

glucosamine-6-phosphate [6] = variants of: B1; assay: self-cleavage kobs at 160 uM GlcN6P; higher = faster cleavage; RNA array
Summary of the method: as §1

glucosamine-6-phosphate [7] = variants of: B1; assay: self-cleavage kobs at 640 uM GlcN6P; higher = faster cleavage; RNA array
Summary of the method: as §1

Row | Variant | kcat (glucosamine-6-phosphate [1]) [s⁻¹] | self-cleavage kobs at 40 uM GlcN6P (glucosamine-6-phosphate [2]) [s⁻¹] | self-cleavage kobs at 2500 uM GlcN6P (glucosamine-6-phosphate [3]) [s⁻¹] | self-cleavage kobs at 10000 uM GlcN6P (glucosamine-6-phosphate [4]) [s⁻¹] | KM (glucosamine-6-phosphate [5]) [µM] | self-cleavage kobs at 160 uM GlcN6P (glucosamine-6-phosphate [6]) [s⁻¹] | self-cleavage kobs at 640 uM GlcN6P (glucosamine-6-phosphate [7]) [s⁻¹]
1 | A6U G29A | 3.18e-05 ± 3.2e-06 | < 1e-05 | 2.95e-05 ± 1.3e-05 | 2.9e-05 ± 9.8e-06 |  |  | 
2 | C10U G29C | 1.05e-05 ± 2.4e-06 |  |  |  |  |  | 
3 | C10U G29A | < 1e-05 | < 1e-05 |  | < 1e-05 |  |  | 
4 | A6G U30G | 0.000154 ± 1.6e-05 | < 1e-05 | 5.13e-05 ± 1.9e-05 | 9.98e-05 ± 1.4e-05 | 5370 ± 1400 | < 1e-05 | 
5 | G7U A53C C58A U69G C70U | 0.000741 ± 0.00023 | 7.41e-05 ± 3.3e-05 | 0.000875 ± 0.00036 |  |  |  | 
6 | C10G U46A | < 1e-05 |  | < 1e-05 |  |  |  | < 1e-05
7 | C10G U47G G60C | 0.000977 ± 0.00037 |  | 0.000552 ± 0.00013 | 0.0011 ± 0.00032 |  | 0.000156 ± 5e-05 | 0.000256 ± 7.5e-05
8 | A6U U30C C68U | 2.13e-05 ± 7.2e-06 |  |  |  |  |  | < 1e-05
9 | C11A G41A | < 1e-05 |  |  |  | 2450 ± 650 | < 1e-05 | < 1e-05
10 | G7A G38A | < 1e-05 |  |  |  |  |  | 
11 | C11A C68G | < 1e-05 |  |  |  |  |  | 
12 | C10U A36G | < 1e-05 | < 1e-05 |  | < 1e-05 |  |  | < 1e-05
13 | C8A C67A | < 1e-05 |  | < 1e-05 |  |  | < 1e-05 | 
14 | A6U U65A | < 1e-05 |  |  |  |  |  | 
15 | A6U U65G | 3.43e-05 ± 1e-05 | < 1e-05 | 4.32e-05 ± 1.3e-05 |  |  |  | 
16 | A6U U56C | 3.09e-05 ± 1.4e-06 |  |  | 2.11e-05 ± 7.5e-06 | 4670 ± 590 | < 1e-05 | 
17 | A6U A64G | 0.000266 ± 4.3e-05 |  | 0.000128 ± 1.6e-05 | 0.00025 ± 2.8e-05 | 1910 ± 590 |  | 7.26e-05 ± 7.4e-06
18 | A6C U56A | 4.08e-05 ± 9.7e-06 |  |  | 3.34e-05 ± 7.8e-06 |  |  | 
19 | A6C U56G | 4.98e-05 ± 4.1e-06 |  |  | 3.5e-05 ± 1.3e-05 | 4200 ± 920 | < 1e-05 | 
20 | C8A G29A C50G G66A C70G | 7.47e-05 ± 2e-05 |  | 7.56e-05 ± 1.6e-05 |  |  | 9e-05 ± 1.5e-05 | 4.95e-05 ± 1.7e-05
21 | A6U G41U | 4.92e-05 ± 3.2e-06 |  |  |  |  |  | 
22 | A6G U31G | 0.000452 ± 9.7e-05 |  | 0.000183 ± 3.2e-05 | 0.000281 ± 5.8e-05 | 4990 ± 1600 |  | 4.67e-05 ± 9.4e-06
23 | C10G G59U | 3.49e-05 ± 2.3e-06 | < 1e-05 | 2.34e-05 ± 6.6e-06 | 3.25e-05 ± 8.1e-06 | 1050 ± 290 |  | 
24 | C8U A36C | < 1e-05 |  |  | < 1e-05 |  |  | 

Row | Variant | kcat (glucosamine-6-phosphate [1]) [s⁻¹] | self-cleavage kobs at 40 uM GlcN6P (glucosamine-6-phosphate [2]) [s⁻¹] | self-cleavage kobs at 2500 uM GlcN6P (glucosamine-6-phosphate [3]) [s⁻¹] | self-cleavage kobs at 10000 uM GlcN6P (glucosamine-6-phosphate [4]) [s⁻¹] | KM (glucosamine-6-phosphate [5]) [µM] | self-cleavage kobs at 160 uM GlcN6P (glucosamine-6-phosphate [6]) [s⁻¹] | self-cleavage kobs at 640 uM GlcN6P (glucosamine-6-phosphate [7]) [s⁻¹]
25 | C10U U54A | 4.72e-05 ± 5.3e-06 | < 1e-05 | 4.32e-05 ± 2.1e-05 | 4.37e-05 ± 9.7e-06 |  | < 1e-05 | 
26 | G9U C34G C58G C68U | 4.14e-05 ± 1.9e-05 |  |  |  |  | 5.81e-05 ± 2.8e-05 | 
27 | A6U C16U C68U | 9.14e-05 ± 3.2e-06 |  | 7.4e-05 ± 1.9e-05 | 8.55e-05 ± 2e-05 | 625 ± 120 |  | 
28 | G7A U45C | < 1e-05 |  |  |  |  |  | < 1e-05
29 | C10A U69C | 1.7e-05 ± 1.9e-06 |  |  |  |  |  | 
30 | C10G G62C | < 1e-05 |  |  |  |  |  | 
31 | C8G G60A | < 1e-05 | < 1e-05 |  | < 1e-05 |  |  | 
32 | C11A G62A | 1.14e-05 ± 2e-06 |  |  |  |  |  | 
33 | G7A U47G C61U | 1.24e-05 ± 4e-06 |  |  |  |  |  | 
34 | A6U C50U | < 1e-05 |  | < 1e-05 |  |  |  | 
35 | C10U G35C | < 1e-05 | < 1e-05 |  |  |  | < 1e-05 | < 1e-05
36 | C10A C61G | < 1e-05 |  |  |  |  |  | 
37 | C8G A15U U55C G60A | < 1e-05 |  |  | < 1e-05 |  |  | 
38 | C10A U55G | < 1e-05 |  |  |  |  | < 1e-05 | 
39 | C10A G51U | < 1e-05 | < 1e-05 |  | < 1e-05 |  |  | 
40 | G9A U45A | 1.6e-05 ± 1.8e-06 |  |  |  |  | < 1e-05 | 
41 | C10A U54G | < 1e-05 | < 1e-05 |  |  |  |  | 
42 | A6U C71U | 0.000302 ± 1.3e-05 |  | 0.000149 ± 1.7e-05 | 0.000235 ± 2.4e-05 | 2710 ± 230 |  | 5.53e-05 ± 9.2e-06
43 | C8U G35A U45A U69G | 1.02e-05 ± 2.7e-06 |  |  |  |  |  | 
44 | C11A G29A | 3.97e-05 ± 1.6e-06 |  |  | 3.17e-05 ± 9.4e-06 | 2550 ± 350 |  | 
45 | G9U C11A | < 1e-05 | < 1e-05 |  |  | 159 ± 62 | < 1e-05 | < 1e-05
46 | A6U A39U C70U | 6.69e-05 ± 6e-06 |  | 4.96e-05 ± 1.8e-05 | 6.76e-05 ± 1.9e-05 | 506 ± 210 |  | 3.98e-05 ± 1.7e-05
47 | A6U G66U | < 1e-05 |  |  |  | 1280 ± 630 |  | 

Source: the supplement of paper PMC7125110
